Experimental data taken from publication PMC3779320, “Bub3 reads phosphorylated MELT repeats to promote spindle assembly checkpoint signaling” (eLife, 2013).
Square brackets hold non-standard residues; d marks the D form. Ends that are not written are not given here. pT = C[C@@H](OP(=O)(O)O)[C@H](N)C(=O)O

Columns and labels:
Bub1^289–359–Bub3 = molecular target: T1, Bub1^289–359–Bub3 (Saccharomyces cerevisiae, UniProt P26449+P41695); assay: ITC binding of MELT peptides to Bub1^289–359–Bub3 (wild type); details: 25°C, 20 mM Tris pH7.5, 150 mM NaCl, 1 mM DTE, complex 30 µM in cell, peptide 400 µM
T1 construct: S. cerevisiae Bub1^289–359 and for full length Bub3; GST (N, cleaved yes); made in house; host or cells: E. coli BL21 DE3 plysS
T1 sequence (P26449 1-341): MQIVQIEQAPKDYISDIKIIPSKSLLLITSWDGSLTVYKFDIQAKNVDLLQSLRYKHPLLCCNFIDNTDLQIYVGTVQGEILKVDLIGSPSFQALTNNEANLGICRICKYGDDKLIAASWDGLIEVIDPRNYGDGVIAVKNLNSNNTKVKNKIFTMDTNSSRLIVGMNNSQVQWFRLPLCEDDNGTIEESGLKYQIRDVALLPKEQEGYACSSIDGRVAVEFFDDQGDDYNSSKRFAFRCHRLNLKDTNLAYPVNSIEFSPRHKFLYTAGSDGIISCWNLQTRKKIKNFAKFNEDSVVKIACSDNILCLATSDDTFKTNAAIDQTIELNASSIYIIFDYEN
T1 sequence (P41695 289-359): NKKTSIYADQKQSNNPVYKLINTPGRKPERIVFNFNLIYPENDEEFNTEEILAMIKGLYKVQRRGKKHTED
Source text: We generated recombinant ScBub1^289–359–Bub3 (where the Bub1 segment is equivalent to the minimal kinetochore targeting region of human Bub1 [[Krenn et al., 2012]]) by bacterial co-expression and purified it to homogeneity (Figure 1D). To assess whether Bub1–Bub3 binds directly to MELT^P sequences, we tested its ability to bind MELT sequences in quantitative isothermal titration calorimetry (ITC) binding experiments. 19-residue synthetic peptides encompassing the sequences of the second and fourth MELT^P motifs of Spc105/Knl1 (indicated as MELT2 and MELT4, respectively), each flanked by four and eleven residues on the N- and C-terminal ends, respectively, were tested (Figure 1C). […] Thus, ScBub1^289–359–Bub3 is sufficient for the reconstitution of tight interactions with two MELT^P peptides in vitro that recapitulate a salient feature of this interaction, its dependency on phosphorylation.
cDNA sequences coding for S. cerevisiae Bub1^289–359 and for full length Bub3 were subcloned in the first and second cassettes of pGEX-6P-2rbs vector ([Ciferri et al., 2005]). In this construct, the cDNA encoding Bub1^289–359 was sub-cloned in frame with the gene encoding GST and a cleavage site for PreScission protease, and was translated from the first ribosome-binding site (rbs). Untagged Bub3 was subcloned downstream of the second rbs in the same vector. Expression was carried out in BL21 DE3 plysS cells in LB medium by auto-induction with 0.3% lactose at 18°C for approximately 16 hr. Cells were harvested by centrifugation and resuspended in Buffer A (20 mM Tris pH 7.5, 300 mM NaCl, 10% Glycerol, 1 mM DTE, 1 mM EDTA pH 8.0, 1 mM PMSF) typically at a dilution of 3 ml lysis buffer per ml of bacterial pellet. Cells were lysed by sonication, and the lysates were cleared by centrifugation at 75000 × g for 45 min. The resulting clear supernatant was incubated with gentle rotation with 1/50 (vol/vol) of GSH-sepharose slurry (GE Healthcare) for 1–2 hr at 4°C. Beads were washed with 150 vol of Buffer A. To elute the Bub1–Bub3 complex from beads, GST-PreScission protease (0.02 mg/mg of protein target) was added for 16 hr at 4°C. The eluate was concentrated on Amicon Ultra Centrifugal Filters MwCO 3000 (Merck Millipore, Billerica, MA) and further purified by size exclusion chromatography (SEC) on a Superdex 75 16/60 column using GF buffer (20 mM Tris pH 7.5, 150 mM NaCl, 1 mM DTE). The complex eluted in a single peak with apparently stoichiometric amounts of Bub1^289–359 and Bub3 and was subsequently concentrated to ∼10 mg/ml for crystallization or to 2–4 mg/ml for ITC experiments. […]
Binding isotherm was measured at 25°C by isothermal titration calorimetry on a MicroCal ITC200 device (GE Healthcare, Piscataway, NJ). […]

Bub1^289–359–R314A–Bub3 = molecular target: T2, Bub1^289–359–R314A–Bub3 (Saccharomyces cerevisiae, UniProt P26449+P41695, R314A); format: binding; details: ITC; Bub3-Bub1^R314A mutant compared to wild type Bub3–Bub1; MELT4^P: data not shown
T2 construct: S. cerevisiae Bub1^289–359 and for full length Bub3; ITC experiment with the MELT2^P peptide and the Bub1^289–359–R314A–Bub3 complex; GST (N, cleaved yes); made in house; host or cells: E. coli BL21 DE3 plysS
Source text: Such function of Bub1 is probably exerted primarily through its structuring effects on the 4-stranded β-sheet ‘roof’ that dominates the peptide-binding region of Bub3 and which restrains the position of the positively charged residues in the ‘north’ area of the MELT^P-binding site (Figure 4E). Additionally, we observe that Arg314^Bub1, in the β1-β2 loop, contributes to the interaction with the phosphate group of P-Thr172^Spc105/Knl1 (the interaction, however, is only observed in one of the two complexes in the asymmetric unit, and in proximity of a crystal contact) and is therefore directly engaged in the interaction with the MELT2^P peptide. In ITC measurements, we observed a ∼fourfold reduction in the binding affinity of the Bub3-Bub1^R314A mutant for the MELT2^P peptide, in agreement with a role of Arg314^Bub1 is in the interaction of the Bub1-Bub3 complex with MELT2^P (Figure 4F). Similarly, Bub3–Bub1^R314A bound the MELT4^P with ∼threefold decreased affinity compared to wild type Bub3–Bub1 (data not shown).
Binding isotherm was measured at 25°C by isothermal titration calorimetry on a MicroCal ITC200 device (GE Healthcare, Piscataway, NJ). All samples were extensively dialysed into fresh GF buffer (20 mM Tris pH7.5, 150 mM NaCl, 1 mM DTE). […]

[1] = molecular target: ScBub1^289–359–Bub3 complex (S. cerevisiae) (UniProt P41695); assay: ITC; 25°C, MicroCal ITC200; 20 mM Tris pH7.5, 150 mM NaCl, 1 mM DTE; Bub1^289–359–Bub3 in the cell at 30 µM, titrated with thirty-five 2-µl injections of peptide at 400 µM; single-site binding model
[2] = molecular target: T3, Bub1^289–359–Bub3^R239A complex (S. cerevisiae, UniProt P41695 289-359; P26449 1-341, R239A); assay: as above; details: both partners purified
T3 construct: Bub3, S. cerevisiae, full length, with R239A; also called R239A mutant; source: expressed and purified essentially like the wild type complex (E. coli, GSH-sepharose, PreScission cleavage, SEC)
T3 sequence (looked up) 1: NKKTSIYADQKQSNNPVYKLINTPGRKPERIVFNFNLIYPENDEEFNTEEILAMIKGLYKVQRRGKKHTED
T3 sequence (looked up) 2: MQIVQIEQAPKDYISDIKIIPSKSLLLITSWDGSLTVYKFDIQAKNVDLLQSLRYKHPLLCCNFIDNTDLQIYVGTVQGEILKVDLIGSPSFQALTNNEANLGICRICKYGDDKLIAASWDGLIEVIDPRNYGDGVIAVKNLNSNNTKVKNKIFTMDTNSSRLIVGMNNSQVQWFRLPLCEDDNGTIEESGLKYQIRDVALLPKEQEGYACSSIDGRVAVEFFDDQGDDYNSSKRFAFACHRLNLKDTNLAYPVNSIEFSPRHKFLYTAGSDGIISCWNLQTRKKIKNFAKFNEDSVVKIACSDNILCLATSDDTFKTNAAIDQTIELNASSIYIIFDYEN

Bub3 (S. cerevisiae) = molecular target: T4, Bub3 (S. cerevisiae) (S. cerevisiae, UniProt P26449 1-341); assay: as above; details: both partners purified
T4 construct: Bub3, S. cerevisiae, full length (7-bladed WD40 beta-propeller); The methods tell the construct only for Bub3 co-expressed with Bub1; also called ScBub3; purified Bub3; source: Bub3 alone: purified, expression not described
T4 sequence (looked up): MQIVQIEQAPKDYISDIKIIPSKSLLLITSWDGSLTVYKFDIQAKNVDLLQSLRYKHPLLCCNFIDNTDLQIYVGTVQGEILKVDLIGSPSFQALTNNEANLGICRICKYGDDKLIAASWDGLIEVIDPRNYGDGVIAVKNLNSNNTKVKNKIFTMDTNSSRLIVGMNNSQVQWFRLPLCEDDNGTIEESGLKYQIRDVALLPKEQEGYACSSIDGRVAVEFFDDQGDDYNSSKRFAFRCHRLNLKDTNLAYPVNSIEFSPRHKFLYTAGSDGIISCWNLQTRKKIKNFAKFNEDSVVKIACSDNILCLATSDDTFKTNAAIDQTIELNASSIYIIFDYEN

[3] = molecular target: T5, Bub1^289–359–R314A–Bub3 complex (S. cerevisiae, UniProt P41695 289-359; P26449 1-341, R314A); assay: as above; details: both partners purified
T5 construct: Bub3, S. cerevisiae, full length; Probably GST-tagged on Bub1 and cleaved as the wild type; also called Bub3-Bub1^R314A mutant; Bub3–Bub1^R314A
T5 sequence (looked up) 1: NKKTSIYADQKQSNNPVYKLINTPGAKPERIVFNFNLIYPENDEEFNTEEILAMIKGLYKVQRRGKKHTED
T5 sequence (looked up) 2: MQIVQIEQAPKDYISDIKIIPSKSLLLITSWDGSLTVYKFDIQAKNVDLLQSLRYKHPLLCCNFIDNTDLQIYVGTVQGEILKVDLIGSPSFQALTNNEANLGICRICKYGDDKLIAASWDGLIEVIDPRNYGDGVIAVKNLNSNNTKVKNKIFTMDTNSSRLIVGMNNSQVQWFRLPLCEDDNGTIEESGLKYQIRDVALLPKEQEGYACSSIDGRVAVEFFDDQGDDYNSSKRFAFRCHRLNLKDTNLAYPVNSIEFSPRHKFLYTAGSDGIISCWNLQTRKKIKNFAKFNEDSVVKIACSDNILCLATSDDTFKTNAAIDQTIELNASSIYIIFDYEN

[4] = molecular target: T6, Bub1^289–359–Bub3^R217A complex (S. cerevisiae, UniProt P41695 289-359; P26449 1-341, R217A); assay: as above; details: both partners purified
T6 construct: Bub3, S. cerevisiae, full length, with R217A; also called R217A mutant; source: expressed and purified essentially like the wild type complex (E. coli, GSH-sepharose, PreScission cleavage, SEC)
T6 sequence (looked up) 1: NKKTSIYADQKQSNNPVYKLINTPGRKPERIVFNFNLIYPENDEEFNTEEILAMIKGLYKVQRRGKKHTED
T6 sequence (looked up) 2: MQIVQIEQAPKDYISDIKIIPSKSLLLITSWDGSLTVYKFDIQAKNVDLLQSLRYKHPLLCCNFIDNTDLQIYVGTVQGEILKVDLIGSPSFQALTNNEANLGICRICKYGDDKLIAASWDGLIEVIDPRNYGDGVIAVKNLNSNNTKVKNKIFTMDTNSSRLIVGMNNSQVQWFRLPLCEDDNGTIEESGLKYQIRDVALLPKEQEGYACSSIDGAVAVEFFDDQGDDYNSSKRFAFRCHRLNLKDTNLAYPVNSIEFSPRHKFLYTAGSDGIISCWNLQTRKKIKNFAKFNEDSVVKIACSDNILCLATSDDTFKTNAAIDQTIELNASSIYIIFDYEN

[5] = molecular target: T7, Bub1^289–359–R314A–Bub3 complex (S. cerevisiae, UniProt P41695 289-359; P26449 1-341, R314A); assay: ITC
T7 sequence 1: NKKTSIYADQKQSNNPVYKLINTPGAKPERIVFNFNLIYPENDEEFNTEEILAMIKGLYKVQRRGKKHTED
T7 sequence 2: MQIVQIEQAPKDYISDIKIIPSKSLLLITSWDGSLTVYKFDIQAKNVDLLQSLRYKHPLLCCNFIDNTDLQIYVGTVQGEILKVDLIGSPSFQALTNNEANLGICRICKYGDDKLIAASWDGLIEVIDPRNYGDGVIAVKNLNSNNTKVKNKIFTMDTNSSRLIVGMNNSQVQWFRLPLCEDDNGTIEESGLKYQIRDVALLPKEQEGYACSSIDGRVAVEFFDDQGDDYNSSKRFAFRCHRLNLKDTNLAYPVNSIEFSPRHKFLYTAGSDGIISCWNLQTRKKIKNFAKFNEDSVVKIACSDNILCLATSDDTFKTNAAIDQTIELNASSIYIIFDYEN

[6] = molecular target: T5, Bub1^289–359–R314A–Bub3 complex; assay: ITC; data not shown; method taken from the sentence before it (ITC measurements); details: both partners purified

DTVEGEPIDL{PTHR}EYESKPYVPN [MELT4^P]
binding (in words) (Bub1^289–359–Bub3): no binding
fold reduction in binding affinity (Bub1^289–359–R314A–Bub3): threefold

GGGPA{pTHR}PKKAKKL [H1^P, Histone H1-derived phosphorylated peptide GGGPA{pTHR}PKKAKKL, AnaSpec catalog number 61741, reference compound]
binding (in words) (Bub1^289–359–Bub3): No binding
binding (in words) (Bub1^289–359–Bub3; listed as unrelated phospho-peptide): did not show any binding affinity

MELT2^P peptide (phosphorylated second MELT repeat of Spc105/Knl1)
Kd [1]: 200 nM

MELT4^P peptide (phosphorylated fourth MELT repeat of Spc105/Knl1)
Kd [1]: 1300 nM

B1: MELT2^P peptide (phosphorylated second MELT repeat of Spc105/Knl1) (peptide)
peptide: DPTSMEM[pT]EVFPRSIRQKN
notes: Spc105/Knl1, S. cerevisiae, second MELT repeat with four residues before and eleven after; Met169, Glu170, Met171, P-Thr172, Phe175 are the printed numbers; The end groups are told only for the peptide used for crystallisation; also called MELT^P peptide; Spc105/Knl1 phosphopeptide; source: synthetic peptide, custom made by GeneScript (95% purity)
Kd [2]: 5000 nM
Kd (Bub3 (S. cerevisiae)): 2000 nM
fold reduction in binding affinity against wild type Bub1^289–359–Bub3 [3]: ~4 fold
Kd [4]: 2700 nM

DPTSMEM[pT]EVFPRSIRQKN (not fully specified)
Kd [5]: 790 nM

B2: MELT4^P peptide (phosphorylated fourth MELT repeat of Spc105/Knl1) (peptide)
peptide: DTVEGEPIDL[pT]EYESKPYVPN
notes: Spc105/Knl1, S. cerevisiae, fourth MELT repeat; also called fourth MELT^P peptide; source: synthetic peptide, custom made by GeneScript (95% purity)
fold decrease in affinity against wild type Bub3–Bub1 [6]: ~3 fold
